Measured values reported in US20080274100A1.

Key:
Assay in all cases: peptide ELISA, 0.5 µg/well scFv
[1] = target: CCR5 (residues 1-18) derived peptide, non-sulfated
[2] = target: CCR5 (residues 1-18) derived peptide, sulfated at 1st tyrosine position
[3] = target: CCR5 (residues 1-18) derived peptide, sulfated at 2nd tyrosine position
[4] = target: CCR5 (residues 1-18) derived peptide, sulfated at 3rd tyrosine position
[5] = target: GPIb (residues 268-285) derived peptide, non-sulfated
[6] = target: GPIb (residues 268-285) derived peptide, sulfated at 1st tyrosine position
[7] = target: GPIb (residues 268-285) derived peptide, sulfated at 3rd tyrosine position
[8] = target: PSGL-1 (residues 42-58) derived peptide, non-sulfated
[9] = target: PSGL-1 (residues 42-58) derived peptide, sulfated at 1st tyrosine position
[10] = target: PSGL-1 (residues 42-58) derived peptide, sulfated at 2nd tyrosine position
[11] = target: PSGL-1 (residues 42-58) derived peptide, sulfated at 3rd tyrosine position

N06 scFv (negative control)
ELISA read-out at 450 nm [1]: 0.06 OD 450 nm
ELISA read-out at 450 nm [2]: 0.06 OD 450 nm
ELISA read-out at 450 nm [3]: 0.06 OD 450 nm
ELISA read-out at 450 nm [4]: 0.06 OD 450 nm
ELISA read-out at 450 nm [5]: 0.07 OD 450 nm
ELISA read-out at 450 nm [6]: 0.07 OD 450 nm
ELISA read-out at 450 nm [7]: 0.07 OD 450 nm
ELISA read-out at 450 nm [8]: 0.06 OD 450 nm
ELISA read-out at 450 nm [9]: 0.06 OD 450 nm
ELISA read-out at 450 nm [10]: 0.06 OD 450 nm
ELISA read-out at 450 nm [11]: 0.06 OD 450 nm
